The values that follow come from PMC8939769.

Assay [1] deals with SARS-CoV-2 S trimer (S2P ectodomain protein) (SARS-CoV-2) (UniProt P0DTC2).
The target is the same in assay [2]. Kind of assay: not stated; binding kinetics (ka, kd, KD) on the SARS-CoV-2 S trimer (S2P ectodomain protein); representative of at least two independent assays; assay details in the Supplementary materials.

In general, Kd refers to a measure of binding affinity in units of concentration. A high value points to lower affinity. In turn, “AZD7442 (combination of AZD8895 and AZD1061)” returned a neutralization of the USA-WA1/2020 strain of SARS-CoV-2 in vitro, IC50 in assay [1] of 10 ng/mL. The substance also showed a Kd in assay [2] of 0.0137 nM.
